Data from article PMC11024299, “Probing the active site of Class 3 L-asparaginase by mutagenesis. I. Tinkering with the zinc coordination site of ReAV” (Frontiers in Chemistry, 2024).
Substitutions are numbered along the chain they refer to. Names may count otherwise.

Legend:
ReAV = biological target: T1, ReAV (Rhizobium etli, UniProt Q2K0Z2); test: multiple injection isothermal titration calorimetry (ITC-MIM); assay type: biochemical; settings: 10 mM Tris-HCl pH 9.0, 37 °C, no added Zn2+; WT values cited to the same group's earlier paper (Sliwiak et al., 2024); cited from earlier work
T1 construct: gene ansA; recombinant from plasmid pET151-D-ReAV in E. coli BL21 Gold (DE3); His-tag cut with TEV protease; homodimer, Zn site C135/K138/C189
Excerpt: (§1) multiple injection isothermal titration calorimetry (ITC-MIM) on ReAV

[1] = biological target: the molecule itself; test: crystal structure; vapor diffusion crystals grown at 19°C, protein supplemented with 0.5%-1% DDM; data at 100 K; molecular replacement with WT ReAV (PDB 7os5); homodimer(s) in the asymmetric unit
[2] = substrate: NC(=O)C[C@H](N)C(=O)O; test: multiple injection isothermal titration calorimetry (ITC-MIM); assay type: biochemical, Rhizobium etli; settings: 10 mM Tris-HCl pH 9.0, 37 °C, no added Zn2+
Excerpt: as §1

T1 sequence (Q2K0Z2 entry or part of it): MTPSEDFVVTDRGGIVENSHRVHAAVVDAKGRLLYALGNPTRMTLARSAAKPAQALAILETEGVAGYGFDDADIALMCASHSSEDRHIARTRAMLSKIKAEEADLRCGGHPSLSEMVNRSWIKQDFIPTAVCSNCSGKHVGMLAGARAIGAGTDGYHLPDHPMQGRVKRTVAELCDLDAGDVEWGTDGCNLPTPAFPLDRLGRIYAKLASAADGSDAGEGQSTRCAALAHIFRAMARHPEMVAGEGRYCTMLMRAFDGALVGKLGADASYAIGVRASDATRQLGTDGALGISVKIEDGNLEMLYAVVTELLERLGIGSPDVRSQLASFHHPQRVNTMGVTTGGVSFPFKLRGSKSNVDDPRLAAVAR

Q: With NC(=O)C[C@H](N)C(=O)O [L-asparagine] as the molecule, how does the Km (ReAV) read?
A: Its Km is 2700 ± 100 µM.

B1: ReAV H139A (enzyme, Rhizobium etli)
chain: MTPSEDFVVTDRGGIVENSHRVHAAVVDAKGRLLYALGNPTRMTLARSAAKPAQALAILETEGVAGYGFDDADIALMCASHSSEDRHIARTRAMLSKIKAEEADLRCGGHPSLSEMVNRSWIKQDFIPTAVCSNCSGKAVGMLAGARAIGAGTDGYHLPDHPMQGRVKRTVAELCDLDAGDVEWGTDGCNLPTPAFPLDRLGRIYAKLASAADGSDAGEGQSTRCAALAHIFRAMARHPEMVAGEGRYCTMLMRAFDGALVGKLGADASYAIGVRASDATRQLGTDGALGISVKIEDGNLEMLYAVVTELLERLGIGSPDVRSQLASFHHPQRVNTMGVTTGGVSFPFKLRGSKSNVDDPRLAAVAR
notes: Homodimer in the crystal (two dimers per asymmetric unit); also called H139A mutant; Rhizobium etli Class 3 L-asparaginase ReAV H139A mutein; source: E. coli BL21 Gold, purified (HisTrap, TEV digestion, Superdex 200)
Q: Does B1 bind [1]?
A: Result: binds

Q: What about the Km [2] of the same molecule?
A: Its Km is 5600 ± 200 µM.

Q: And the kcat [2]?
A: The kcat was 445 ± 20 s⁻¹.

Q: What about the kcat/Km [2] of the same molecule?
A: Its kcat/Km is 80000 ± 1000 M⁻¹ s⁻¹.

B2: ReAV D187A (enzyme, Rhizobium etli)
chain: B1 chain with A139H, D187A
notes: Homodimer in the crystal (two dimers per asymmetric unit); also called D187A mutant; Rhizobium etli Class 3 L-asparaginase ReAV D187A mutein; source: E. coli BL21 Gold, purified (HisTrap, TEV digestion, Superdex 200)
Q: Does B2 bind [1]?
A: Result: binds

B3: ReAV C189A (enzyme, Rhizobium etli)
chain: B1 chain with A139H, C189A
notes: Homodimer in the crystal (one dimer per asymmetric unit); also called C189A mutant; Rhizobium etli Class 3 L-asparaginase ReAV C189A mutein; source: E. coli BL21 Gold, purified (HisTrap, TEV digestion, Superdex 200)
Q: Does B3 bind [1]?
A: Result: binds

B4: ReAV C135A (enzyme, Rhizobium etli)
chain: B1 chain with C135A, A139H
notes: Homodimer in the crystal (one dimer per asymmetric unit); also called C135A mutant; Rhizobium etli Class 3 L-asparaginase ReAV C135A mutein; source: E. coli BL21 Gold, purified (HisTrap, TEV digestion, Superdex 200)
Q: Does B4 bind [1]?
A: Result: binds

B5: ReAV K138A (enzyme, Rhizobium etli)
chain: B1 chain with K138A, A139H
notes: Homodimer in the crystal (two dimers per asymmetric unit); also called K138A mutant; Rhizobium etli Class 3 L-asparaginase ReAV K138A mutein; source: E. coli BL21 Gold, purified (HisTrap, TEV digestion, Superdex 200)
Q: Does B5 bind [1]?
A: Result: binds
